In patent US20220403031A1:

How the values were obtained:
[1] = molecular target: human PD-L1 on CHO-K1 cells (W315-CHO-K1.hPro1.C11) (human) (UniProt Q9NZQ7); assay: FACS affinity on human PD-L1 cells, quantitative beads; parameters: Bmax: unit not given here
[2] = molecular target: HER3.his (Homo sapiens (Human)) (UniProt P21860); assay: non-specific binding ELISA; antigen coated at 2 ug/mL, antibody at 10 ug/ml
[3] = molecular target: PD-1.his (Homo sapiens (Human)) (UniProt Q15116); assay: as above
OX40.his = assay: as above
[4] = molecular target: 4-1BB.his (Homo sapiens (Human)) (UniProt Q07011); assay: as above
Sequence of 4-1BB.his (Homo sapiens (Human)) (Q07011 24-186 limits assumed): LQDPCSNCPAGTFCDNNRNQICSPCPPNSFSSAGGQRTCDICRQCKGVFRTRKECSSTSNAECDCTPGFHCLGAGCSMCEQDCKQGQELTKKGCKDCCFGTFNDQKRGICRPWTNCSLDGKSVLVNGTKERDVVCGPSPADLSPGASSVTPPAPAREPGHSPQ

Sequence of human PD-L1 on CHO-K1 cells (W315-CHO-K1.hPro1.C11) (human) (Q9NZQ7 19-290): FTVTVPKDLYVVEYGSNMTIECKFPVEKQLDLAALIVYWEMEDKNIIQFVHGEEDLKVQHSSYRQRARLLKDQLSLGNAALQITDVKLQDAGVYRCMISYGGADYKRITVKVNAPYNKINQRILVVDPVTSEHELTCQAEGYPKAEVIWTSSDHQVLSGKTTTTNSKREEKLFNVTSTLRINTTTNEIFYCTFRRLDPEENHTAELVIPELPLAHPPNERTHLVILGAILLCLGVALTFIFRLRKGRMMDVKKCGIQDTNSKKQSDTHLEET
Sequence of PD-1.his (Homo sapiens (Human)) (Q15116 25-170 limits assumed): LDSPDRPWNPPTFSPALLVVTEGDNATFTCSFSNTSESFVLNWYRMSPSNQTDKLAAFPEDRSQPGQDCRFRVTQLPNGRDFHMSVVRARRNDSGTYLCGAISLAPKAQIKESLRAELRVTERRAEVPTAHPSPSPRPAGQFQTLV
Sequence of OX40.his (P43489 29-214): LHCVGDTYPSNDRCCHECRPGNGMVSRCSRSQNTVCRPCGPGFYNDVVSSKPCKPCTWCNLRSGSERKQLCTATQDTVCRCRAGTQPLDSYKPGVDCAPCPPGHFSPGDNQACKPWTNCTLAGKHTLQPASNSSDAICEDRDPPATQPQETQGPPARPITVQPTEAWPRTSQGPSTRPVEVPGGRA

Bmax [1] | Kd [1] | Absorbance at 450 nm [2] | Absorbance at 450 nm [3] | Absorbance at 450 nm (OX40.his) | Absorbance at 450 nm [4] | Binder
2.8e-10 | 0.24 nM | – | – | – | – | BMK9.Fc(IgG4) (Benchmark antibody 9, variable region of KN035 conjugated with human IgG4 constant region) (Fc fusion, INN chains, looked up, VHH-Fc IgG4) VH: QVQLVESGGGLVQPGGSLRLSCAASGKMSSRRCMAWFRQAPGKERERVAKLLTTSGSTYLADSVKGRFTISRDNSKNTVYLQMNSLRAEDTAVYYCAADSFEDPTCTLVTSSGAFQYWGQGTLVTVSS
– | – | 0.07 | 0.06 | 0.06 | 0.07 | AP3R2-1A3-z12-hIgG4 (Fc fusion, not shown: a dimerising Fc or GST) EVQLVESGGGLVQPGGSLRLSCAASGHFSNLAVNWFRQAPGKERELVAGILWSGGSTFYADSVKGRFTISRGNAENMLYLQMNSLRAEDTAVYYCNTGTNWGQGTLVTVSS
